Assay results taken from PMC7084690, “N-terminal Backbone Pairing Shifts in CCL5-^12AAA^14 Dimer Interface: Structural Significance of the FAY Sequence” (International Journal of Molecular Sciences, 2020).

Experiments:
[1] = biological target: T1, CCL5-F12A (human), P13501; test: NMR titration; pH titration followed by 1H,15N-HSQC; this point pH 3.2; 0.2 mM 15N-labelled protein, 25 mM sodium acetate, 150 mM NaCl, 10% D2O, 298 K; monomer to dimer; settings: remark: other sources report otherwise
T1 chain: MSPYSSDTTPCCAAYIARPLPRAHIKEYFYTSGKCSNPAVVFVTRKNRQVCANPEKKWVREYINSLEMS

[2] = biological target: the molecule itself; test: NMR backbone relaxation (15N-R1, 15N-R2, 1H-15N NOE); pH 3.2, 298 K, 600 MHz, in the absence or presence of 180 mM ammonium sulfate; oligomeric state from R1, R2 and the R2/R1 ratio; monomer to dimer
[3] = biological target: the molecule itself; test: NMR titration; pH titration followed by 1H,15N-HSQC; this point pH 3.2; 0.2 mM 15N-labelled protein, 25 mM sodium acetate, 150 mM NaCl, 10% D2O, 298 K; monomer to dimer
[4] = biological target: the molecule itself; test: NMR titration; pH titration followed by 1H,15N-HSQC; this point pH 5.0 (for the wild type maintained until pH 6.0); 0.2 mM 15N-labelled protein, 25 mM sodium acetate, 150 mM NaCl, 10% D2O, 298 K; dimers to soluble oligomers, read from the loss of resonance intensity

B1: CCL5-F12A, P13501 24-91 (natural protein)
chain: MSPYSSDTTPCCAAYIARPLPRAHIKEYFYTSGKCSNPAVVFVTRKNRQVCANPEKKWVREYINSLEMS
[1]
  stoichiometry N: 2

B2: CCL5-12AAA14 (natural protein, human)
chain: MSPYSSDTTPCCAAAIARPLPRAHIKEYFYTSGKCSNPAVVFVTRKNRQVCANPEKKWVREYINSLEMS
notes: starting Met residue (M0) that precedes residues 1-68 of the mature CCL5; numbers count on: the mature protein; 15N- or 15N,13C-labelled for the NMR experiments; In the crystal the first five N-terminal residues were not modelled; also called 12AAA14 mutant
[2]
  stoichiometry N: 2

B3: human CC-type chemokine ligand 5 (CCL5) (natural protein)
chain: MSPYSSDTTPCCFAYIARPLPRAHIKEYFYTSGKCSNPAVVFVTRKNRQVCANPEKKWVREYINSLEMS
notes: starting Met residue (M0) that precedes residues 1-68 of the mature CCL5; CCL5 (RANTES), human, residues 1-68 of the mature CCL5; numbers count on: the mature protein; 15N-labelled for the NMR experiments; vector pET43.1a(+); also called RANTES; native CCL5
[3]
  stoichiometry N: 2

B4: CCL5-Y14A (natural protein, human)
chain: MSPYSSDTTPCCFAAIARPLPRAHIKEYFYTSGKCSNPAVVFVTRKNRQVCANPEKKWVREYINSLEMS
notes: starting Met residue (M0) that precedes residues 1-68 of the mature CCL5; CCL5 (RANTES), human, residues 1-68 of the mature CCL5, with Y14A; numbers count on: the mature protein; 15N-labelled for the NMR experiments
[4]
  binding result: binds
